The values that follow come from patent publication US20250340661A1, “ANTI CD40 ANTIBODY, ANTIGEN BINDING FRAGMENT AND MEDICAL USE THEREOF” (Jiangsu Hengrui Pharmaceuticals Co., Ltd., priority 2021, published 2025).

Test [1] deals with T1, CD40 (Homo sapiens, UniProt P25942). As to the kind of experiment: B cell activation assay system (human PBMCs, CD40L stimulation). Format: cell-based. Set-up: endogenous in cells; host or cells: human PBMCs (CD19+ B cells read out). As to conditions: CD40L-his + anti-His overnight. As to the method:
CD40 is highly expressed in B cells, and CD40L, upon binding to CD40, can induce B cell activation and up-regulate the expression of a series of activation markers. CD40 antagonistic antibodies block the binding of CD40L to CD40, thereby eliminating the immune activation process of B cells.
Human PBMCs were plated at 2E5/well, 50 μL/well into a 96-well cell culture plate (the medium was RPMI-1640, 10% FBS, 1% penicillin-streptomycin). Serially diluted test antibodies were added at 50 μL/well, and the cells were co-incubated at 37° C. in 5% CO2 for 0.5 h. CD40L-his and an anti-His antibody were added to each well for overnight stimulation. The following day, the plate was centrifuged, the supernatant was removed, and the cells were washed twice with FACS buffer and stained at room temperature for 15 min with 100 μL of Fixable viability dye EF780 (Invitrogen, 65086514) diluted at 1:1000. The cells were washed twice and then blocked at room temperature for 10 min with 100 μL of human Fc blocker (BD, 564220) diluted at 1:200. After centrifugation, the cells were incubated at 4° C. for 0.5 h with flow cytometry antibodies (PerCP/Cyanine5.5 anti-human CD19 (Biolegend, 302230), and APC anti-human CD69 (Biolegend, 310910)) diluted at 1:200. After centrifugation, the supernatant was removed, the cells were washed twice with FACS buffer and then resuspended in 200 μL of PBS, and the fluorescence intensity on the cell surface was measured by flow cytometry (BD FACS Celesta).
With reference to the method in Example 10, the inhibitory activity of the anti-CD40 antibodies 2F12-L4H2-AAYTE and 9E6-L4H2-AAYTE, which carry the AAYTE mutation in the Fc, in the B cell activation assay system was measured.

The target in test [2] is T2, Raji cell surface human CD40 (Homo sapiens, UniProt P25942).
T2 construct: Raji cells highly express human CD40 on the cell surface; endogenous in cells; host or cells: Raji cells (Burkitt lymphoma line)
Kind of test: FACS binding of humanized anti-CD40 antibodies to Raji cells. The procedure:
Raji cells highly express human CD40 on the cell surface and thus can be used to detect the binding of CD40 antagonistic antibodies to the cell surface human CD40.
Raji cells were plated at 1.5E5/well, and various concentrations of CD40 antagonistic antibodies were added. The plate was incubated at 4° C. for 1 h. After two washes with FACS buffer (PBS+2% FBS), a secondary antibody (Alexa Flour488 conjugated anti-human IgG (H+L) antibody) was added, and the plate was incubated at 4° C. for 0.5 h.
After two washes with FACS buffer, the fluorescence intensity on the cell surface was measured by flow cytometry (BD FACS Celesta).

Test [3] relates to human CD40 transgenic mice. Kind of test: Mouse T cell-dependent humoral immune response (TDAR) model. Format: in vivo. To be noted: 0.3 mpk BIW ip (IgG1 control 1 mg/kg per Table 15); serum ELISA. As to the method: On day 0 of the experiment, one of the mice in each group was subjected to blood collection followed by intraperitoneal injection. On day 1, each mouse was intraperitoneally injected with 50 μg of KLH (KLH:complete Freund's adjuvant (CFA)=1:1 emulsified immune complex) for immunization. On day 15 of the experiment, each mouse was intraperitoneally injected with 50 μg of KLH (KLH:incomplete Freund's adjuvant (IFA)=1:1 emulsified immune complex) for a second immunization. Each group was intraperitoneally injected twice a week, and blood samples of about 150 μL were collected from the orbital venous plexus on days 7, 14, 21, and 28. Whole blood was left to stand at room temperature for 1-4 h and centrifuged at 7000 rpm at 4° C. for 10 min to separate serum, and the serum was stored at −80° C. before use.
Mouse serum was separated weekly and assayed by ELISA for the anti-KLH specific IgG level.
A general note: ELISA stands for enzyme-linked immunosorbent assay.

The target in test [4] is T1, CD40. As to the kind of experiment: HEK-Blue CD40L reporter gene cell activity of humanized anti-CD40 antibodies. Format: cell-based. Also on record: host or cells: HEK-Blue CD40L cells. To be noted: read-out: IC50 inhibition of CD40 reporter gene cell activity. The procedure: HEK-Blue CD40L cells were purchased from Invivogen (Cat. #hkb-cd40). The cells were stably transfected with the human CD40 gene and the NF-kB-mediated SEAP genome. The activation level of the CD40 signaling pathway can be characterized by measuring the amount of secreted SEAP in the supernatant using QUANTI-Blue, the substrate of SEAP. In the assays, the inhibitory effects of the CD40 antagonistic antibodies on the CD40L-induced HEK-Blue CD40L cell activation were measured, and the in vitro cell activity of the CD40 antagonistic antibodies was assessed based on IC50. HEK-Blue CD40L cells were cultured in a DMEM medium containing 10% FBS, 100 μg/mL Normocin, 100 μg/mL Zeocin and 30 μg/mL Blasticidin, with 2-3 passages a week. HEK-Blue CD40L cells were plated at 5E4/well into a 96-well cell culture plate (the medium was DMEM, 10% FBS, 100 μg/mL Normocin) and incubated overnight. […] CD40L-his (R&D, 2706-CL-025) and anti-His antibody (R&D, MAB050-500) were added, and the plate was incubated overnight. After cell centrifugation, 20 μL of the cell supernatant was transferred to a new 96-well white plate, and 180 μL of QUANTI-Blue substrate solution was added. The plate was incubated in the dark for 15 min. The absorbance at 620 nm was measured with an Envision microplate reader, and IC50 values were calculated and used to assess the in vitro cell activity of the CD40 antagonistic antibodies.
(In general: In a reporter assay the amount or activity of a reporter protein is the signal.)

T1 sequence (P25942 21-277): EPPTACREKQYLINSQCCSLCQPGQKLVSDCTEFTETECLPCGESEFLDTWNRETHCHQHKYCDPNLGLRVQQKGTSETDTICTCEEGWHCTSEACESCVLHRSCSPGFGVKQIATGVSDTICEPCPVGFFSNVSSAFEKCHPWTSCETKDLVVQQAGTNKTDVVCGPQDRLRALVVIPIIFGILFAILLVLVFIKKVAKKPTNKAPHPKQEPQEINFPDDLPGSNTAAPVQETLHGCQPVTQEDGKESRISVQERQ
T2 sequence (P25942 21-277): as above

“CFZ533: anti-CD40 antagonistic antibody (iscalimab), positive control; variable regions from U.S. Pat. No. 8,277,810B [reference compound]”: in the test with CD40 [1], the “CD19+CD69+ % Maximum inhibition rate” value came out at 95% and the “CD19+CD69+ MFI Maximum inhibition rate” value is reported as 110%. Also, the half-inhibitory concentration (IC50) – broadly, the midpoint of a concentration-inhibition curve – with CD40 [1] (read-out: CD19+CD69+ % IC50) is 0.14 nM. Also, the concentration for half-maximal inhibition (IC50) with CD40 [1] (read-out: CD19+CD69+ MFI IC50) was 0.07 nM. Besides, in test [2], the concentration for a half-maximal effect (EC50) (usually the concentration at which the effect is half-maximal) amounted to 1.01 nM. In test [3], the “anti-KLH specific IgG level, Day 7” value is 0.04 ± 0.01; the “anti-KLH specific IgG level, Day 14” value is reported as 30.9 ± 10.8; the “anti-KLH specific IgG level, Day 21” value was found to be 845 ± 423; the “anti-KLH specific IgG level, Day 28” value came to 3043 ± 1600. Further, the IC50 with CD40 [4] (Assay 1) was found to be 0.36 nM. For the same substance, the IC50 with CD40 [4] (Assay 2) was 0.35 nM.
